Measured values reported in the RNAGym collection of RNA variant scans (doi:10.7554/elife.80360).

B1: CPEB3 Ribozyme (parent)
chain: GGGGGCCACAGCAGAAGCGUUCACGUCGCGGCCCCUGUCAGAUUCUGGUGAAUCUGCGAAUUCUGCUGU

Variants of: B1
Assay: self-cleavage, relative activity (ratio to wild type); higher = more cleavage; co-transcriptional

Point of comparison: C22A G31A, self-cleavage 0.174. Against it:
- C22G C35G — higher, 0.231
- C22G C35A — lower, 0.169
- C22G C35U — higher, 0.208
- C22A U62G — lower, 0.112
- C22A U64C — lower, 0.168
- C22A U64G — lower, 0.0937
- C22A U64A — higher, 0.176
- U21G U69A — higher, 0.667
- U21G U69G — higher, 0.823
- U21G U69C — higher, 0.863
- C22G C57G — higher, 0.205
- C22A G47U — higher, 0.18
- C22A G47A — higher, 0.217
- U21G U46G — higher, 0.503
- U21G U46A — higher, 0.537
- U21G G65C — higher, 0.306
- U21G G65U — higher, 0.243
- C22A U36A — lower, 0.137
- C22A U36G — lower, 0.161
- C22A U26G — higher, 0.305
- C22A U26C — higher, 0.242
- U21G U36A — lower, 0.17
- C22A C63G — lower, 0.114
- C22A C63A — lower, 0.13
- C22G C27U — lower, 0.142
- C22G C27A — lower, 0.149
- C22A U46G — lower, 0.148
- C22A U46C — higher, 0.186
- C22A U46A — higher, 0.181
- C22A G48C — lower, 0.162
- C22A G48U — lower, 0.162
- C22A G48A — higher, 0.223
- C22A U69G — higher, 0.301
- C22A U69C — higher, 0.291
- C22A U69A — higher, 0.189
- C22A C24G — higher, 0.249
- C22A C24U — lower, 0.128
- C22A A42G — higher, 0.207
- C22A A42C — higher, 0.251
- U21G U43G — higher, 0.324
- U21G U43C — higher, 0.428
- U21G U43A — higher, 0.235
- C22A G41A — lower, 0.12
- C22A G41U — lower, 0.154
- C22A G41C — lower, 0.138
- C22G C24A — lower, 0.129
- C22G A23G — higher, 0.217
- C22A G50U — higher, 0.253
- C22A G50C — higher, 0.234
- C22A A52U — lower, 0.118
- C22A A52G — higher, 0.214
- C22A U49C — higher, 0.209
- C22A U49G — lower, 0.0812
- C22A U49A — higher, 0.195
- C22G C63A — lower, 0.141
- C22G C32A — lower, 0.117
- C22G C32G — lower, 0.139
- U21G U67G — higher, 0.579
- U21G U55C — higher, 0.358
- U21G U55A — higher, 0.592
- U21G U55G — higher, 0.346
- C22A G25A — lower, 0.162
- C22A G25U — lower, 0.115
- C22A A51U — higher, 0.242
- C22A A51G — lower, 0.169
- C22A U67G — higher, 0.27
- C22A U67A — the same, 0.174
- C22A G31U — higher, 0.194
- C22A G31C — lower, 0.137
- C22G A59G — higher, 0.204
- C22G A59C — lower, 0.151
- C22G A59U — higher, 0.246
- U21G U38A — lower, 0.157
- U21G U38G — higher, 0.274
- C22A C54U — lower, 0.139
- C22A C54G — higher, 0.2
- C22G A52U — lower, 0.146
- C22G A52C — higher, 0.191
- C22G A52G — lower, 0.124
- U21G U26G — higher, 0.221
- U21G U26A — higher, 0.3
- C22G C29G — higher, 0.225
- C22G C29U — lower, 0.07
- U21G U44C — higher, 0.444
- U21G U44G — higher, 0.386
- U21G U44A — higher, 0.498
- C22A A60C — lower, 0.129
- C22A U44G — higher, 0.237
- C22A C32G — higher, 0.182
- C22A C32A — higher, 0.224
- C22A C32U — higher, 0.201
- C22A G37U — higher, 0.937
- C22A G37C — higher, 0.265
- C22G A60C — lower, 0.133
- C22G A60U — lower, 0.0906
- C22A C39U — higher, 0.206
- U21G G58U — higher, 0.657
- C22A G28U — lower, 0.159
- C22A G28C — lower, 0.124
- C22A G28A — lower, 0.158
- C22A C66G — lower, 0.138
- C22A C66U — higher, 0.177
- C22G C39G — lower, 0.0932
- C22G C39A — lower, 0.0996
- C22G C39U — higher, 0.236
- C22A C57U — lower, 0.137
- C22A C57G — higher, 0.187
- C22A C45G — higher, 0.194
- C22G C45G — higher, 0.229
- C22G C45A — higher, 0.223
- U21G U61G — higher, 0.24
- U21G U61C — higher, 0.214
- C22A U38G — lower, 0.131
- C22A U38A — higher, 0.225
- C22A G30C — lower, 0.168
- C22A G30U — higher, 0.181
- C22G C34G — higher, 0.177
- C22G C34A — higher, 0.194
- C22A A23C — higher, 0.202
- C22A A40U — higher, 0.235
- C22A A40C — higher, 0.222
- C22A A40G — higher, 0.246
- U21G G68A — higher, 0.794
- U21G U49C — higher, 0.738
- C22A G65A — lower, 0.152
- C22A G65U — higher, 0.209
- U21G U53G — higher, 0.376
- U21G U53C — higher, 0.354
- C22A C35U — lower, 0.138
- C22A C35G — lower, 0.153
- C22A C35A — higher, 0.252
- U21G U62C — higher, 0.305
- U21G U62A — higher, 0.316
- U21G U62G — higher, 0.273
- C22G A51G — lower, 0.131
- C22G A51U — lower, 0.163
- C22G A51C — lower, 0.151
- C22G C33A — higher, 0.195
- C22G C33U — higher, 0.264
- C22A U61G — higher, 0.25
- C22A U61C — lower, 0.164
- C22A U61A — higher, 0.219
- C22A C33U — higher, 0.218
- C22A C33A — higher, 0.2
- C22A C34A — higher, 0.206
- C22G C54A — lower, 0.121
- C22G C54G — lower, 0.125
- C22G C54U — higher, 0.204
- C22A G58A — higher, 0.179
- C22A G58U — lower, 0.119
- C22A G56C — lower, 0.173
- C22A G56A — lower, 0.134
- C22A U43G — higher, 0.181
- C22A U43A — lower, 0.143
- C22A — higher, 0.201
- C22G — higher, 0.181
- C22A U53A — higher, 0.208
- C22A U53G — lower, 0.151
- C22A C29G — lower, 0.162
- C22A C29A — lower, 0.169
- C22A C29U — lower, 0.158
- C22G A42C — higher, 0.23
- C22G A42U — higher, 0.194
- C22G A42G — lower, 0.132
- C22A U55C — lower, 0.113
- C22A U55A — higher, 0.234
